Reference: patent US20240010684A1 (Bayer, published 2024)
Each block holds one binder with its values, some of them ahead of it. *1 amine or outer side, *2 acyl side, *3 side chain or, on linkers, in order; H or OH if unused. Bridges are numbered along the chain shown (N, C = ends). Where no end group is shown, it is not given here. [ ]: non-standard residue; d: D form. TTDS = 1,13-diamino-4,7,10-trioxatridecan-succinamic acid, O=C(CCC(=O)[*:2])NCCCOCCOCCOCCCN[*:1]; Oic = O=C(O)[C@@H]1C[C@@H]2CCCC[C@@H]2N1; Trx = NC[C@H]1CC[C@H](C(=O)O)CC1; tBuAla = CC(C)(C)C[C@H](N)C(=O)O; PEG4 = NCCOCCOCCOCCOCCC(=O)O; Pen = CC(C)(S)[C@H](N)C(=O)O; Orn = NCCC[C@H](N)C(=O)O; Dab = NCC[C@H](N)C(=O)O; Dap = NC[C@H](N)C(=O)O; Ahx = NCCCCCC(=O)O; Sar = CNCC(=O)O

Tests used:
[1] = target: T1, recombinant human MASP1 (amino acids 297-699, C-terminal His Tag) (human, UniProt P48740 297-699); experiment: cell-based or functional assay
T1 sequence: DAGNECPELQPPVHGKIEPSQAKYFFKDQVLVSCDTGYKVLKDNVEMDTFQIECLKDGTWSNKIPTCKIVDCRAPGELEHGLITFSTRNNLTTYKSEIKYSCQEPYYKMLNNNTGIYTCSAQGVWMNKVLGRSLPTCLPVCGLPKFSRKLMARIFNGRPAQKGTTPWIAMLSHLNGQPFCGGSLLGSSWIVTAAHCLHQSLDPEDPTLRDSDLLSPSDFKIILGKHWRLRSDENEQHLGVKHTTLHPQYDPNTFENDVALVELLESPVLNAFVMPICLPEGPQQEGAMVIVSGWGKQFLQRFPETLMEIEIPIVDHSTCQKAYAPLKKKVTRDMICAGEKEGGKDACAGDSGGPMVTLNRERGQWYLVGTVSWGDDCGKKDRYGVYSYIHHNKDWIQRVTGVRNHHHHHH

[2] = target: recombinant human MASP2 (amino acids 297-686, C-terminal His Tag) (human, UniProt O00187 297-686); experiment: cell-based or functional assay
recombinant human MASP2 (amino acids 297-686, C-terminal His Tag), sequence (O00187 other isoform, or with tags, fused parts or gaps limits assumed): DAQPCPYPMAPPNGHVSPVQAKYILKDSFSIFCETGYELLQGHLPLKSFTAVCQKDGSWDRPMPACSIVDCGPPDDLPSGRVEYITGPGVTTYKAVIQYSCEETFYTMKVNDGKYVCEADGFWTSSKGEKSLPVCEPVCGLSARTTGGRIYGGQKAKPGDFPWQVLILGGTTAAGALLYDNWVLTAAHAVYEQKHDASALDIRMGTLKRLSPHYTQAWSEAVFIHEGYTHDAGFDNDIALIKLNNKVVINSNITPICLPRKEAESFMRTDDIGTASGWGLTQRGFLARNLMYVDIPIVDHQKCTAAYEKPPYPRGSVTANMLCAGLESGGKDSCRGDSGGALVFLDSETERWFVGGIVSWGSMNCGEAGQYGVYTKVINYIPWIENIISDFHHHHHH

Binder: [Orn]AICSRS[tBuAla]PPI[Pen]IPD-NH2 (lactam 1-15; disulfide 4-12; also: TFA salt) [Example 61: (Orn)++-AIC+SRS-((tBu)A)-PPI-(Pen)+-IPD++-NH2]
human MASP1 IC50 [1]: 3.1 nM
human MASP2 IC50 [2]: 310 nM

Binder: cyclo([dA]GGICSRSLPPICIPD) (disulfide 5-13; also: TFA salt) [Example 19: a**GGIC+SRSLPPIC+IPD**]
human MASP1 IC50 [1]: 49 nM
human MASP2 IC50 [2]: 210 nM

Binder: G[Trx]GICSRS[tBuAla]PPI[Pen]IPD-NH2 (disulfide 5-13; lactam N-16; also: TFA salt) [Example 62: G**-(TXA)-GIC+SRS-((tBu)A)-PPI-(Pen)+-IPD++-NH2]
human MASP1 IC50 [1]: 22 nM
human MASP2 IC50 [2]: 540 nM

Binder: [Ahx][Sar]AICSRSLP[Oic]I[Pen]IPE-NH2 (disulfide 5-13; lactam N-16; also: TFA salt) [Example 77: (Ahx)**-((N-Me)G)-AIC+SRSLP-(Oic)-I-(Pen)+-IPE++-NH2]
human MASP1 IC50 [1]: 11 nM
human MASP2 IC50 [2]: 210 nM

Binder: cyclo([Dap][Dap]GICSRSLPPICIPD) (disulfide 5-13; also: TFA salt) [Example 23: (Dap)**-(Dap)-GIC+SRSLPPIC+IPD**]
human MASP1 IC50 [1]: 180 nM
human MASP2 IC50 [2]: 20 nM

Binder: cyclo(GGICSRSLPPICIPD) (disulfide 4-12; also: TFA salt) [Example 15: G**GIC+SRSLPPIC+IPD**]
human MASP1 IC50 [1]: 120 nM
human MASP2 IC50 [2]: 300 nM

Binder: KICSRS[tBuAla]PPI[Pen]I (lactam 1-C; disulfide 3-11; also: TFA salt) [Example 67: K++-IC+SRS-((tBu)A)-PPI-(Pen)+-I**]
human MASP1 IC50 [1]: 3.25 nM
human MASP2 IC50 [2]: 150 nM

Binder: [Ahx][dA]ICSRSLP[Oic]I[Pen]IPE-NH2 (disulfide 4-12; lactam N-15; also: HCl salt) [Example 79: (Ahx)**-aIC+SRSLP-(Oic)-I-(Pen)+-IPE++-NH2 (HCl Salt)]
human MASP1 IC50 [1]: 22 nM
human MASP2 IC50 [2]: 45 nM

Binder: cyclo([TTDS]AICSRS[tBuAla]PPI[Pen]IPD) (disulfide 4-12; also: TFA salt) [Example 63: (TTDS)**-AIC+SRS-((tBu)A)-PPI-(Pen)+-IPD**]
human MASP1 IC50 [1]: 28 nM
human MASP2 IC50 [2]: 170 nM

Binder: [Ahx]AICSRSLP[Oic]I[Pen]IPE-NH2 (disulfide 4-12; lactam N-15; also: TFA salt) [Example 74: (Ahx)**-AIC+SRSLP-(Oic)-I-(Pen)+-IPE++-NH2]
human MASP1 IC50 [1]: 14 nM
human MASP2 IC50 [2]: 160 nM

B1: Example 21: G**SGIC+SRSLPPIC+IPDS** (peptide)
peptide: cyclo(GSGICSRSLPPICIPDS)
modifications: disulfide 5-13; not fully specified; printed as G**SGIC+SRSLPPIC+IPDS**; also: TFA salt
human MASP1 IC50 [1]: 170 nM
human MASP2 IC50 [2]: 120 nM

Binder: KGICSRSLPPICIPD (lactam 1-C; disulfide 4-12; also: TFA salt) [Example 22: K++GIC+SRSLPPIC+IPD**]
human MASP1 IC50 [1]: 190 nM
human MASP2 IC50 [2]: 91 nM

Binder: cyclo(AGGICSRSLPPICIPD) (disulfide 5-13; also: TFA salt) [Example 18: A**GGIC+SRSLPPIC+IPD**]
human MASP1 IC50 [1]: 50 nM
human MASP2 IC50 [2]: 15 nM

Binder: [Dap]GGICSRSLPPICIPD (lactam 1-C; disulfide 5-13; also: TFA salt) [Example 20: (Dap)++-GGIC+SRSLPPIC+IPD**]
human MASP1 IC50 [1]: 55 nM
human MASP2 IC50 [2]: 110 nM

Binder: cyclo([PEG4]GICSRSLPPICIPD) (disulfide 4-12; also: TFA salt) [Example 14: (PEG3(16 atoms))**-GIC+SRSLPPIC+IPD**]
human MASP1 IC50 [1]: 170 nM
human MASP2 IC50 [2]: 240 nM

Binder: cyclo([Dap][Dab]ICSRS[tBuAla]PPI[Pen]I) (disulfide 4-12; also: TFA salt) [Example 73: (Dap)**-(Dab)-IC+SRS-((tBu)A)-PPI-(Pen)+-I**]
human MASP1 IC50 [1]: 42 nM
human MASP2 IC50 [2]: 430 nM

Binder: [Orn]ICSRS[tBuAla]PPI[Pen]I (lactam 1-C; disulfide 3-11; also: TFA salt) [Example 66: (Orn)++-IC+SRS-((tBu)A)-PPI-(Pen)+-I**]
human MASP1 IC50 [1]: 8.1 nM
human MASP2 IC50 [2]: 22 nM

Binder: cyclo([Ahx]GICSRSLPPICIP[dD]) (disulfide 4-12; also: TFA salt) [Example 16: (Ahx)**-GIC+SRSLPPIC+IPd**]
human MASP1 IC50 [1]: 150 nM
human MASP2 IC50 [2]: 370 nM

Binder: cyclo([Orn]GICSRS[tBuAla]PPI[Pen]I) (disulfide 4-12; also: TFA salt) [Example 65: (Orn)**-GIC+SRS-((tBu)A)-PPI-(Pen)+-I**]
human MASP1 IC50 [1]: 49 nM
human MASP2 IC50 [2]: 540 nM

Binder: [Orn]ICSRS[tBuAla]PPI[Pen]IP (lactam 1-C; disulfide 3-11; also: TFA salt) [Example 71: (Orn)++-IC+SRS-((tBu)A)-PPI-(Pen)+-IP**]
human MASP1 IC50 [1]: 21 nM
human MASP2 IC50 [2]: 24 nM

Binder: cyclo(AGGICSRSLPPICIP[dD]) (disulfide 5-13; also: TFA salt) [Example 17: A**GGIC+SRSLPPIC+IPd**]
human MASP1 IC50 [1]: 26 nM
human MASP2 IC50 [2]: 88 nM

Binder: [dK]ICSRS[tBuAla]PPI[Pen]I (lactam 1-C; disulfide 3-11; also: HCl salt) [Example 78: k++-IC+SRS-((tBu)A)-PPI-(Pen)+-I** (HCl Salt)]
human MASP1 IC50 [1]: 10 nM
human MASP2 IC50 [2]: 7 nM

Continued, values first:

human MASP1 IC50 [1]: 9.8 nM
human MASP2 IC50 [2]: 110 nM
Binder: EGICSRSLP[Oic]I[Pen]IPK-NH2 (lactam 1-15; disulfide 4-12; also: TFA salt) [Example 90: E++GIC+SRSLP-(Oic)-I-(Pen)+-IPK++-NH2]

human MASP1 IC50 [1]: 5 nM
human MASP2 IC50 [2]: 760 nM
Binder: cyclo([Dap][Dap]ICSRS[tBuAla]PPI[Pen]IP) (disulfide 4-12; also: TFA salt) [Example 97: (Dap)**-(Dap)-IC+SRS-((tBu)A)-PPI-(Pen)+-IP**]

human MASP1 IC50 [1]: 27 nM
human MASP2 IC50 [2]: 1000 nM
Binder: [Dap][Dap]ICSRSLP[Oic]I[Pen]IP (lactam 1-C; disulfide 4-12; also: TFA salt) [Example 86: (Dap)++-(Dap)-IC+SRSLP-(Oic)-I-(Pen)+-IP**]

human MASP1 IC50 [1]: 1000 nM
human MASP2 IC50 [2]: 1000 nM
Binder: cyclo(ICSRS[tBuAla]PPI[Pen]IP) (disulfide 2-10; also: HCl salt) [Example 88: I**C+SRS-((tBu)A)-PPI-(Pen)+-IP** (HCl Salt)]

human MASP1 IC50 [1]: 46 nM
human MASP2 IC50 [2]: 700 nM
Binder: cyclo([Dap]ICSRSLP[Oic]I[Pen]IP) (disulfide 3-11; also: TFA salt) [Example 87: (Dap)**-IC+SRSLP-(Oic)-I-(Pen)+-IP**]

human MASP1 IC50 [1]: 11 nM
human MASP2 IC50 [2]: 6.8 nM
Binder: [dK]ICSRS[tBuAla]PPI[Pen]I (lactam 1-C; disulfide 3-11; also: TFA salt) [Example 80: k++-IC+SRS-((tBu)A)-PPI-(Pen)+-I**]

human MASP1 IC50 [1]: 23 nM
human MASP2 IC50 [2]: 400 nM
Binder: cyclo([Orn]GICSRS[tBuAla]PPI[Pen]IP) (disulfide 4-12; also: TFA salt) [Example 96: (Orn)**-GIC+SRS-((tBu)A)-PPI-(Pen)+-IP**]

human MASP1 IC50 [1]: 120 nM
human MASP2 IC50 [2]: 130 nM
Binder: cyclo([Ahx]GICSRSLPPICIPD) (disulfide 4-12; also: HCl salt) [Example 94: (Ahx)**-GIC+SRSLPPIC+IPD** (HCl Salt)]

human MASP1 IC50 [1]: 15 nM
human MASP2 IC50 [2]: 87 nM
Binder: [Ahx]G[dA]ICSRSLP[Oic]I[Pen]IPE-NH2 (disulfide 5-13; lactam N-16; also: TFA salt) [Example 84: (Ahx)**-GaIC+SRSLP-(Oic)-I-(Pen)+-IPE++-NH2]

human MASP1 IC50 [1]: 29 nM
human MASP2 IC50 [2]: 71 nM
Binder: EGICSRSLP[Oic]I[Pen]IPDK-NH2 (lactam 1-16; disulfide 4-12; also: TFA salt) [Example 91: E++GIC+SRSLP-(Oic)-I-(Pen)+-IPDK++-NH2]

human MASP1 IC50 [1]: 100 nM
human MASP2 IC50 [2]: 110 nM
Binder: cyclo([Ahx]ICSRSLP[Oic]ICI) (disulfide 3-11; also: TFA salt) [Example 95: (Ahx)**-IC+SRSLP-(Oic)-IC+I**]

human MASP1 IC50 [1]: 1000 nM
human MASP2 IC50 [2]: 1000 nM
Binder: [Dap]ICSRSLP[Oic]I[Pen]IP (lactam 1-C; disulfide 3-11; also: TFA salt) [Example 85: (Dap)++-IC+SRSLP-(Oic)-I-(Pen)+-IP**]

human MASP1 IC50 [1]: 18 nM
human MASP2 IC50 [2]: 91 nM
Binder: [Ahx]GICSRSLP[Oic]I[Pen]IPE-NH2 (disulfide 4-12; lactam N-15; also: TFA salt) [Example 83: (Ahx)**-GIC+SRSLP-(Oic)-I-(Pen)+-IPE++-NH2]

human MASP1 IC50 [1]: 18 nM
human MASP2 IC50 [2]: 230 nM
Binder: [3‑azido‑L‑alanine]GAICSRS[tBuAla]PPICIP[L‑propargylglycine]-NH2 (triazole 1-16; disulfide 5-13; also: TFA salt)

human MASP1 IC50 [1]: 69 nM
human MASP2 IC50 [2]: 700 nM
Binder: [Ahx]GAICSRSLP[Oic]I[Pen]IPE-NH2 (disulfide 5-13; lactam N-16; also: TFA salt) [Example 82: (Ahx)**-GAIC+SRSLP-(Oic)-I-(Pen)+-IPE++-NH2]
